Reference: patent US20020098523A1

Assays:
Human eotaxin (human) [1] = target: Human eotaxin (human) (UniProt P51671); test: cell-based or functional assay
Human eotaxin (human) [2] = target: Human eotaxin (human) (UniProt P51671); test: not stated (summary sentence in the introduction)
Human eotaxin (human) [3] = target: Human eotaxin (human) (UniProt P51671); test: saturation binding of [125I]eotaxin to coated CAT-212 on a Flash Plate, Scatchard plot
Human eotaxin (human) [4] = target: Human eotaxin (human) (UniProt P51671); test: Flash Plate scintillation competition: unlabelled CAT-212 against coated CAT-212 for [125I]eotaxin; mean of 4 estimates

IC50, inhibition of eotaxin-induced Ca2+ flux in CCR3 cells (FLIPR, area under the curve) (Human eotaxin (human) [1]): 5 nM
IC50, inhibition of eotaxin-mediated chemotaxis of CCR3-transfected L1.2 cells (Human eotaxin (human) [1]): 0.65 nM
improvement in chemotaxis neutralisation potency over scFv 3G3 (Human eotaxin (human) [1]): 1000 fold
Kd (Human eotaxin (human) [2]): 0.015 nM
Kd (Human eotaxin (human) [3]): 0.146 nM
IC50 (Human eotaxin (human) [4]): 0.0425 nM
B1: CAT-212 (scFv, part only; not given: scFv linker and myc/His tag, V domains shown, not shown: another chain or arm of the molecule; small tags and cut ends)
VH: QVQLVQSGGGVVQPGRSLRLSCAASGFTFSSYGMHWVRQAPGKGLEWVAVISYDGSIKHYADSVKGRFTISRDNSKNTLYLQMNSLRTDDTAVYYCAGDTDYGDIDPWGQGTMVTVSS
VL: DIQMTQSPSSVSASVGDRVTITCRASQDISSWLAWYQQKPGKAPKLLIYAASSLQSGVPSRFSGSGSGTDFTLTISSLQPEDFATYYCQQASSFPSITFGQGTRLEIK
